Holding throughout (test): EMSA
The subject of series [1] is RsmA4 (Pseudomonas syringae pv. tomato DC3000).
The test system of series [2] is RsmA3 (Pseudomonas syringae pv. tomato DC3000).
Series [3] relates to RsmA2 (Pseudomonas syringae pv. tomato DC3000).
Series [4] relates to RsmA1 (Pseudomonas syringae pv. tomato DC3000).

rsmZ: the binding signal in series [1] was 640 nM; in series [2] it was 40 nM; in series [3], 40 nM; in series [4], 320 nM.

For the substance rsmX5, the binding signal in series [1] worked out at 640 nM; in series [2], 40 nM; in series [3], 40 nM; in series [4], 320 nM.

rsmY: the binding signal in series [1] worked out at 640 nM; in series [2], 40 nM; in series [3] it was 40 nM; in series [4] it was 320 nM.

As to rsmX1, the binding signal is 640 nM in series [1], 40 nM in series [2], 40 nM in series [3] and 320 nM in series [4].
